Molecular target: fibrillin-1 (human) (UniProt P35555)
Assay: cell-based or functional assay

Sequence of elastin (P15502 27-786 limits assumed): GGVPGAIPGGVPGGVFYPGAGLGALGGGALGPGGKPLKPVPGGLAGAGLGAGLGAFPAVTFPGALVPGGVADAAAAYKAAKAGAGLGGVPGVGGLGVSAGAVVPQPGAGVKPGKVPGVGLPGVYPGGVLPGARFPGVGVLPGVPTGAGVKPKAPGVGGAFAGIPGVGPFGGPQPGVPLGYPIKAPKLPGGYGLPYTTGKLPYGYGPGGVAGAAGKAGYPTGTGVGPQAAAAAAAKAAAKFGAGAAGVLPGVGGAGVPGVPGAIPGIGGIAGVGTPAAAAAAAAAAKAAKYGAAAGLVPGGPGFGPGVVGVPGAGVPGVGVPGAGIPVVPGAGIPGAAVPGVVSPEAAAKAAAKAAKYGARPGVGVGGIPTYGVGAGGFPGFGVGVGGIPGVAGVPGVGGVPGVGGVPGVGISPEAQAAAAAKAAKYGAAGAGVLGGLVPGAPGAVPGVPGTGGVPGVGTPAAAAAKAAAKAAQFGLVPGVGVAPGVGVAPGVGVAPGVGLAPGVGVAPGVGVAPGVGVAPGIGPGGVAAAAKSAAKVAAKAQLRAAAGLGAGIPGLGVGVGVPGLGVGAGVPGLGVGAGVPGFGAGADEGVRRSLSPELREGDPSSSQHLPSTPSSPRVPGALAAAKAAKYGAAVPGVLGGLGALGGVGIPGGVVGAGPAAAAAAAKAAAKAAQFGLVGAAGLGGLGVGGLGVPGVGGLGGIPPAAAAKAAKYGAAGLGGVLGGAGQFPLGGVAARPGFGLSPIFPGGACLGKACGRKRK
Sequence of UniProt P35555 (P35555 45-2731 limits assumed): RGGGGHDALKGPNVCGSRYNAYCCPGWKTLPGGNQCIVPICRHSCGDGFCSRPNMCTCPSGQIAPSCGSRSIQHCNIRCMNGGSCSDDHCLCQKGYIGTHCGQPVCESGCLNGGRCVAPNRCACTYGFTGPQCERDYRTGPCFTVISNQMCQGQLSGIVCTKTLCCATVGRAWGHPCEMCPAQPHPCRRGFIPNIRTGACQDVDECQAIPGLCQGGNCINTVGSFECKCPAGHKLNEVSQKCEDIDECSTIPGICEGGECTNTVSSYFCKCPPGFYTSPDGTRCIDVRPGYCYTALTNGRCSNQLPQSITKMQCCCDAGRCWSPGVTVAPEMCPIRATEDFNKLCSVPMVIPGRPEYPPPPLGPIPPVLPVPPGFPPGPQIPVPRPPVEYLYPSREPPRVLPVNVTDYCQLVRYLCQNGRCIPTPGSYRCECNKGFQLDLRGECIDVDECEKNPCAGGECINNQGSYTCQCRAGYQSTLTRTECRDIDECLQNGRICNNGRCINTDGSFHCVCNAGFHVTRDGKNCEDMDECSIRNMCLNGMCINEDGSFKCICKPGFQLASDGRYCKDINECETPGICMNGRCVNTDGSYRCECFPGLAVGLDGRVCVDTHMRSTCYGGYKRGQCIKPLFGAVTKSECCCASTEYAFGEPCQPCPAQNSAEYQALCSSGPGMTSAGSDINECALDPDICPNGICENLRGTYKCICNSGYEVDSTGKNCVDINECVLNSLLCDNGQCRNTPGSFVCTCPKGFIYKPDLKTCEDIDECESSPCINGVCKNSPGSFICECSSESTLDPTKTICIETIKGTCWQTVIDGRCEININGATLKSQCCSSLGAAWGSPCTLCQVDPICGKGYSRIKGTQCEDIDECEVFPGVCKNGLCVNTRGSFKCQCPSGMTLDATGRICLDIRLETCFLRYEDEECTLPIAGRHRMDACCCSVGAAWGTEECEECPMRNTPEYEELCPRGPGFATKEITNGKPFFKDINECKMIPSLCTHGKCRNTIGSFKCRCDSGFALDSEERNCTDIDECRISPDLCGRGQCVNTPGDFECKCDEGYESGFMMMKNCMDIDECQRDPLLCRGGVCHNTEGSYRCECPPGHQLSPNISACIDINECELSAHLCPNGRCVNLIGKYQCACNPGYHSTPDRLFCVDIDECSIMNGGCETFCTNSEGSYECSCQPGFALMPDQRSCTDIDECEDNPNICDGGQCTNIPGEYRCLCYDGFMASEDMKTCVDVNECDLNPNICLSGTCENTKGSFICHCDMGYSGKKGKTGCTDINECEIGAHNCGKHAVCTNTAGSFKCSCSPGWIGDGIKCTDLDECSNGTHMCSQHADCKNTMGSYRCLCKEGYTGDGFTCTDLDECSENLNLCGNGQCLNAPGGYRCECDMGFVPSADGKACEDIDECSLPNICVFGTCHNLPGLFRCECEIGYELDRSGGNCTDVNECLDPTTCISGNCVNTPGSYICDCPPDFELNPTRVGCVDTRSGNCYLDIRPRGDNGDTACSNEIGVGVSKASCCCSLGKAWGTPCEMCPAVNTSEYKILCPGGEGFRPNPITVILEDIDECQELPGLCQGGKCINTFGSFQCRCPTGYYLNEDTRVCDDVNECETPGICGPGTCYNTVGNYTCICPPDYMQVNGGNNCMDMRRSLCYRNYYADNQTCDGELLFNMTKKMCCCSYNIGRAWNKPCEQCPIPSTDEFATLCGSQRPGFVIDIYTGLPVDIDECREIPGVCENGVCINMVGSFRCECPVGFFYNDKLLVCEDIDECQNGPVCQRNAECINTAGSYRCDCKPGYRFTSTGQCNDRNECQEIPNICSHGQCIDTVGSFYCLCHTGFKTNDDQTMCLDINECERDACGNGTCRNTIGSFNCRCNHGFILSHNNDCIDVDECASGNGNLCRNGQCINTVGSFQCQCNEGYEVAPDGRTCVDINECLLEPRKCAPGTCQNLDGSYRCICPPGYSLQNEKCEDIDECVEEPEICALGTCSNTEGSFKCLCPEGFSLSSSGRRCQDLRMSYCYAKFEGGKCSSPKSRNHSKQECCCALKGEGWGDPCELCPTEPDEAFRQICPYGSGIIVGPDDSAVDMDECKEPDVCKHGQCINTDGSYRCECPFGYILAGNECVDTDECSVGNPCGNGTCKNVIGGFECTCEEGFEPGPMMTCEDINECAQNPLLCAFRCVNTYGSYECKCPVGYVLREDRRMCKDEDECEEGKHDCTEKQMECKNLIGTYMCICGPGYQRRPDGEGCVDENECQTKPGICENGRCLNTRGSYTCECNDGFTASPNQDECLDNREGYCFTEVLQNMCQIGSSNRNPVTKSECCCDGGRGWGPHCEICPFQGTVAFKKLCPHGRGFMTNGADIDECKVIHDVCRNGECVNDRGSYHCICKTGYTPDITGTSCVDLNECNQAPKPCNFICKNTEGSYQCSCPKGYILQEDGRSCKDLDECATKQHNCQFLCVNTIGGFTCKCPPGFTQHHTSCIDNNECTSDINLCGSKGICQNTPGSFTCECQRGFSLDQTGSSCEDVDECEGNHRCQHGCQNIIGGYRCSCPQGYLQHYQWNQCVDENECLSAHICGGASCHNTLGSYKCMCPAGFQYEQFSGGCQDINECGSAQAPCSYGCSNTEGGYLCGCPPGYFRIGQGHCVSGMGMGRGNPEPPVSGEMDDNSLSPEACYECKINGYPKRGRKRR

## elastin (from UniProt P15502 27-786)
  amount of elastin deposition to the extracellular matrix (% vs CS-free), keloid cells, CS-A added: 87%
  amount of elastin deposition to the extracellular matrix (% vs CS-free), keloid cells, CS-A and CS-B added: 66.3%
  amount of elastin deposition to the extracellular matrix (% vs CS-free), keloid cells, CS-A and CS-C added: 67.4%
  amount of elastin deposition to the extracellular matrix (% vs CS-free), keloid cells, CS-A, CS-B and CS-C added: 37.6%
  amount of elastin deposition to the extracellular matrix (% vs CS-free), keloid cells, CS-B added: 95.9%
  amount of elastin deposition to the extracellular matrix (% vs CS-free), keloid cells, CS-B and CS-C added: 91%
  amount of elastin deposition to the extracellular matrix (% vs CS-free), keloid cells, CS-C added: 86.7%
  amount of elastin deposition to the extracellular matrix (% vs CS-free), keloid cells, CS-free: 100%

Source: patent US20110008312A1
